Measured values from patent publication US20140030731.

B1: endogenous human ROCKI, Ser^1333 phosphorylated (HEK-293T cell extracts) (protein)
chain: STGDSFETRFEKMDNLLRDPKSEVNSDCLLDGLDALVYDLDFPALRKNKNIDNFLSRYKDTINKIRDLRMKAEDYEVVKVIGRGAFGEVQLVRHKSTRKVYAMKLLSKFEMIKRSDSAFFWEERDIMAFANSPWVVQLFYAFQDDRYLYMVMEYMPGGDLVNLMSNYDVPEKWARFYTAEVVLALDAIHSMGFIHRDVKPDNMLLDKSGHLKLADFGTCMKMNKEGMVRCDTAVGTPDYISPEVLKSQGGDGYYGRECDWWSVGVFLYEMLVGDTPFYADSLVGTYSKIMNHKNSLTFPDDNDISKEAKNLICAFLTDREVRLGRNGVEEIKRHLFFKNDQWAWETLRDTVAPVVPDLSSDIDTSNFDDLEEDKGEEETFPIPKAFVGNQLPFVGFTYYSNRRYLSSANPNDNRTSSNADKSLQESLQKTIYKLEEQLHNEMQLKDEMEQKCRTSNIKLDKIMKELDEEGNQRRNLESTVSQIEKEKMLLQHRINEYQRKAEQENEKRRNVENEVSTLKDQLEDLKKVSQNSQLANEKLSQLQKQLEEANDLLRTESDTAVRLRKSHTEMSKSISQLESLNRELQERNRILENSKSQTDKDYYQLQAILEAERRDRGHDSEMIGDLQARITSLQEEVKHLKHNLEKVEGERKEAQDMLNHSEKEKNNLEIDLNYKLKSLQQRLEQEVNEHKVTKARLTDKHQSIEEAKSVAMCEMEKKLKEEREAREKAENRVVQIEKQCSMLDVDLKQSQQKLEHLTGNKERMEDEVKNLTLQLEQESNKRLLLQNELKTQAFEADNLKGLEKQMKQEINTLLEAKRLLEFELAQLTKQYRGNEGQMRELQDQLEAEQYFSTLYKTQVKELKEEIEEKNRENLKKIQELQNEKETLATQLDLAETKAESEQLARGLLEEQYFELTQESKKAASRNRQEITDKDHTVSRLEEANSMLTKDIEILRRENEELTEKMKKAEEEYKLEKEEEISNLKAAFEKNINTERTLKTQAVNKLAEIMNRKDFKIDRKKANTQDLRKKEKENRKLQLELNQEREKFNQMVVKHQKELNDMQAQLVEECAHRNELQMQLASKESDIEQLRAKLLDLSDSTSVASFPSADETDGNLPESRIEGWLSVPNRGNIKRYGWKKQYVVVSSKKILFYNDEQDKEQSNPSMVLDIDKLFHVRPVTQGDVYRAETEEIPKIFQILYANEGECRKDVEMEPVQQAEKTNFQNHKGHEFIPTLYHFPANCDACAKPLWHVFKPPPALECRRCHVKCHRDHLDKKEDLICPCKVSYDVTSARDMLLLACSQDEQKKWVTHLVKKIPKNPPSGFVRASPRTLSTRSTANQSFRKVVKNTSGKTS
B2: endogenous human ROCKII, Ser^1366 phosphorylated (HEK-293T cell extracts; human breast tumor tissue) (protein)
chain: MSRPPPTGKMPGAPETAPGDGAGASRQRKLEALIRDPRSPINVESLLDGLNSLVLDLDFPALRKNKNIDNFLNRYEKIVKKIRGLQMKAEDYDVVKVIGRGAFGEVQLVRHKASQKVYAMKLLSKFEMIKRSDSAFFWEERDIMAFANSPWVVQLFYAFQDDRYLYMVMEYMPGGDLVNLMSNYDVPEKWAKFYTAEVVLALDAIHSMGLIHRDVKPDNMLLDKHGHLKLADFGTCMKMDETGMVHCDTAVGTPDYISPEVLKSQGGDGFYGRECDWWSVGVFLYEMLVGDTPFYADSLVGTYSKIMDHKNSLCFPEDAEISKHAKNLICAFLTDREVRLGRNGVEEIRQHPFFKNDQWHWDNIRETAAPVVPELSSDIDSSNFDDIEDDKGDVETFPIPKAFVGNQLPFIGFTYYRENLLLSDSPSCRETDSIQSRKNEESQEIQKKLYTLEEHLSNEMQAKEELEQKCKSVNTRLEKTAKELEEEITLRKSVESALRQLEREKALLQHKNAEYQRKADHEADKKRNLENDVNSLKDQLEDLKKRNQNSQISTEKVNQLQRQLDETNALLRTESDTAARLRKTQAESSKQIQQLESNNRDLQDKNCLLETAKLKLEKEFINLQSALESERRDRTHGSEIINDLQGRICGLEEDLKNGKILLAKVELEKRQLQERFTDLEKEKSNMEIDMTYQLKVIQQSLEQEEAEHKATKARLADKNKIYESIEEAKSEAMKEMEKKLLEERTLKQKVENLLLEAEKRCSLLDCDLKQSQQKINELLKQKDVLNEDVRNLTLKIEQETQKRCLTQNDLKMQTQQVNTLKMSEKQLKQENNHLMEMKMNLEKQNAELRKERQDADGQMKELQDQLEAEQYFSTLYKTQVRELKEECEEKTKLGKELQQKKQELQDERDSLAAQLEITLTKADSEQLARSIAEEQYSDLEKEKIMKELEIKEMMARHKQELTEKDATIASLEETNRTLTSDVANLANEKEELNNKLKDVQEQLSRLKDEEISAAAIKAQFEKQLLTERTLKTQAVNKLAEIMNRKEPVKRGNDTDVRRKEKENRKLHMELKSEREKLTQQMIKYQKELNEMQAQIAEESQIRIELQMTLDSKDSDIEQLRSQLQALHIGLDSSSIGSGPGDAEADDGFPESRLEGWLSLPVRNNTKKFGWVKKYVIVSSKKILFYDSEQDKEQSNPYMVLDIDKLFHVRPVTQTDVYRADAKEIPRIFQILYANEGESKKEQEFPVEPVGEKSNYICHKGHEFIPTLYHFPTNCEACMKPLWHMFKPPPALECRRCHIKCHKDHMDKKEEIIAPCKVYYDISTAKNLLLLANSTEEQQKWVSRLVKKIPKKPPAPDPFARSSPRTSMKIQQNQSIRRPSRQLAPNKPS

What was measured:
[1] = target: constitutively active GFP-RhoAV14, P61586
[2] = target: GFP-RhoAV14E40L (constitutively active mutant of RhoA defective in its interaction with ROCK), P61586
Chain of GFP-RhoAV14E40L (constitutively active mutant of RhoA defective in its interaction with ROCK), P61586 (P61586 other isoform, or with tags, fused parts or gaps mutant): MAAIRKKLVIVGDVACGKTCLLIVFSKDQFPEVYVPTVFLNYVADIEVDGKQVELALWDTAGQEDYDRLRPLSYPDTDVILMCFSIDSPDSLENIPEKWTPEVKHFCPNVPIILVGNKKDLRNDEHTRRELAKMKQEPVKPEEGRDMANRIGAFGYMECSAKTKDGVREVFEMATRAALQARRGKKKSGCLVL

Chain of constitutively active GFP-RhoAV14, P61586 (P61586 other isoform, or with tags, fused parts or gaps): as the sequence (P61586 other isoform, or with tags, fused parts or gaps mutant) above, with L40E counted along it

Protein	level of ROCKI Ser^1333 phosphorylation (Western blotting with antibody-I, HEK-293T extracts) [1]	level of ROCK Ser^1366 phosphorylation (Western blotting with antibody-II, HEK-293T extracts) [1]	level of ROCKII Ser^1366 phosphorylation (Western blotting with antibody-II, HEK-293T extracts) [2]
B1	the changes on the level of ROCKI Ser^1333 phosphorylaion also indeed enhanced due to RhoA activation		
B2		the level of ROCK Ser^1366 phosphorylation in the GFP-RhoAV14 expression cells was enhanced	neither GFP-RhoAV14E40L nor GFP-RhoAN19 transfection shows no the enhancement of RCOKII Ser^1366 phosphorylation
